B1: noggin: BMP2/4 pathway inhibitor (BMP antagonist); purchased from R&D systems (protein, UniProt Q13253 28-232, looked up)
Noggin: QHYLHIRPAPSDNLPLVDLIEHPDPIFDPKEKDLNETLLRSLLGGHYDPGFMATSPPEDRPGGGGGAAGGAEDLAELDQLLRQRPSGAMPSEIKGLEFSEGLAQGKKQRLSKKLRRKLQMWLWSQTFCPVLYAWNDLGSRFWPRYVKVGSCFSKRSCSVPEGMVCKPSKSVHLTVLRWRCQRRGGQRCGWIPIQYPIISECKCSC
B2: BMP4: bone morphogenetic protein, growth factor activating Smad1/5/8 signaling; purchased from R&D systems (protein, UniProt P12644 293-408, looked up)
Bone morphogenetic protein 4: SPKHHSQRARKKNKNCRRHSLYVDFSDVGWNDWIVAPPGYQAFYCHGDCPFPLADHLNSTNHAIVQTLVNSVNSSIPKACCVPTELSAISMLYLDEYDKVVLKNYQEMVVEGCGCR

Tests used:
Assay type in all cases: cell-based, human
[1] = tested on: MLC-2v-expressing VMs among differentiated CMs; assay: flow cytometry of MLC-2v-expressing cells among cTNT-expressing CMs at day 90; conditions: for proportion of MLC-2v-expressing cells among differentiated CMs: day 90
Experimental: (§1) In some embodiments, from about day 14 of differentiation, growth factor-free medium is used and replaced every 3 days. After about 60 to about 90 days of differentiation, the percentage of VMs in the differentiated CMs was determined with the analysis of APs of CMs (recorded by the patch clamp technique), calcium imagining studies, and/or MLC-2v and cardiac troponin T (cTNT) double immunofluorescence staining for flow cytometric analysis.
(§2) RA represents 1 μM retinoic acid; B represents BMP4; NVa represents vitamin A-free medium; N represents noggin; and numbers represent the concentrations (Unit is ng/mL). The RARγ concentration is 0.1 μM.
(§3) 5) As mentioned above, during early differentiation of CMs, IRX-4 is an important gene with specific expression in differentiated VMs. As CMs mature, VMs begin to specifically express the MLC-2v gene. Thus, the MLC-2v expression level was measured in differentiated cells at day 90 of culture after treatment with various growth factors. […] Moreover, flow cytometry was performed to determine the proportion of MLC-2v-expressing VMs among differentiated CMs (cTNT-expressing cells) at day 90. […] The most classical method to identify the subtypes of CMs is to measure the APs of the CMs. The proportions of cells with atrial-, ventricular-, and nodal-like APs among differentiated CMs were analyzed after treatment with retinoic acid and various doses of BMP4 (FIG. 8).

IRX-4 = assay: quantitative RT-PCR of ventricle-specific early marker gene IRX-4 at day 14 of differentiation; conditions: for IRX-4 expression level (FIG. 2A): added to the cultures at various concentrations, relative to GADPH
Excerpt: T-Smad1/5/8 represents total Smad1/5/8 proteins. β-actin served as an internal loading control. The histogram in FIG. 1C presents the experimental results of quantitative RT-PCR analysis of IRX-4 gene expression levels at 14 days of differentiation. […] Connected line indicates the cardiac differentiation efficiency of the stem cells under the corresponding inductive conditions. N represents noggin, B represents BMP4; NVa represents differentiated cells cultured in vitamin A-free medium; RA represents retinoic acid; and numbers represent the concentrations (Unit for BMP4 is ng/mL). Data are expressed as relative values compared with the expression level of glyceraldehyde-3-phosphate dehydrogenase (GADPH).
FIG. 2 presents quantitative RT-PCR analysis of the expression levels of the ventricle-specific early marker gene IRX-4 at day 14 in differentiated cultures with various treatments. […] However, the expression level is reduced by addition of a BMP antagonist, noggin. […] N represents noggin; B represents BMP4, NVa represents differentiated cells treated in vitamin A-free medium; RA represents retinoic acid; and numbers represents the concentrations (Unit is ng/mL). The results of quantitative RT-PCR are indicated as relative values compared with the expression levels of GADPH.
RA represents retinoic acid; RAi represents a retinoic acid inhibitor, BMS189453; NVa represents vitamin A-free medium; The RAR pan-antagonist is BMS493. The results of quantitative RT-PCR are expressed as relative values compared with cTNT expression
2) The role of the BMP pathway in directed differentiation of CM subtypes was analyzed further during cardiac differentiation of stem cells. IRX-4 is a marker gene expressed during early differentiation of VMs. Thus, the IRX-4 expression level was measured to further study the role of the BMP pathway in differentiation of CM subtypes.

BMP2 = assay: quantitative RT-PCR of BMP2 expression at day 6 of differentiation; conditions: added with DKK1, vitamin A-free medium
Excerpt: The results of quantitative RT-PCR are indicated as relative values compared with those of GADPH. NVa represents vitamin A-free medium.
Additionally, in vitamin A-containing medium, early specific IRX-4 expression in VMs was activated by addition of DKK1 and antagonists of RARα and RAR. This indicated induced differentiation of stem cells into VMs. Because retinoic acid has three RARs receptors (RARα, RARβ, and RARγ), simultaneous inhibition of RARα and RARβ in the presence of vitamin A or retinoic acid has a similar mechanism and effect as that of independent activation of RARγ alone.

differentiated CMs [2] = assay: action potential classification of differentiated CMs (patch clamp); conditions: for proportion of CMs with ventricular-like APs: treatment alone during middle stage, differentiated CMs at 90 days
Experimental: as §1, §2, §3

differentiated CMs [3] = assay: calcium imaging of differentiated CMs by confocal laser scanning microscopy at 60-90 days; conditions: 60-90 days of differentiation
Excerpt: FIG. 5 presents images from confocal laser scanning microscopy and simultaneous recordings of APs of calcium activity in differentiated CMs and the classification of the differentiated CMs according to the specific calcium activity patterns in the various types of CMs. […] FIG. 5B presents the proportions of CMs with Ca^2+ sparks, Ca^2+ transients, and Ca^2+ oscillations in different treatments as classified by calcium signaling patterns of the various subtypes of CMs in A. The vertical axis represents the proportions of CMs with the three different calcium activities; RA represents 1 μM retinoic acid; Letter B represents BMP4; NVa represents vitamin A-free medium; N represents noggin; and numbers represent the concentrations (ng/mL).
4) To verify the role of the BMP pathway in regulating the differentiation of VMs from stem cells, calcium activities of cardiomyocytes were recorded with confocal laser scanning microscopy at 60-90 days of differentiation. Calcium activity in VMs clearly differs from that in AMs and nodel cells. Calcium activity in VMs has a higher imaging frequency, known as Ca^+ sparks. […] Thus, comparing the image pattern of calcium activities in CMs is an effective method to distinguish VMs from AMs and nodel cells.

MLC-2v = assay: western blot of MLC-2v expression in differentiated cells at day 90
Experimental: FIG. 4B presents the results of double immunofluorescence staining of cTNT and MLC-2v in CMs at day 90 of differentiation after retinoic acid, BMP4, and noggin treatments. Letter B in the figures represents BMP4, NVa represents differentiated cells cultured in vitamin A-free medium; RA represents 1 μM retinoic acid; and numbers represent the concentrations (ng/mL).
as §3

Molecule | proportion of MLC-2v-expressing cardiomyocytes in cardiomyocytes population (cTNT-expressing cells) ([1]; 90 days of differentiation, 0.1 μM, vitamin A-free medium) | ventricle-specific IRX-4 expression (IRX-4; added along with DKK1 during middle stage of cardiac differentiation, vitamin A-free medium, relative to cTNT) | BMP2 expression (BMP2) | proportion of CMs with ventricular-like APs (differentiated CMs [2]) | IRX-4 expression level (FIG. 2A) (IRX-4; day 14) | elevation of the IRX-4 expression level by BMP4 in the presence of retinoic acid (FIG. 2D) (IRX-4; increasing concentrations of noggin, day 14) | IRX-4 expression level (IRX-4; vitamin A-free medium, added day 5 to day 8 of differentiation, 300, 600, 1200 ng/mL) | proportion of MLC-2v-expressing cells among differentiated CMs ([1]; BMP4 added to cells after retinoic acid treatment) | proportion of MLC-2v-expressing cells among differentiated CMs ([1]; BMP4 treatment alone) | IRX-4 expression level in retinoic acid-treated culture (IRX-4; added simultaneously with 1 μM retinoic acid, day 5 to day 8, various doses) | proportion of cells with ventricular-like APs (differentiated CMs [2]; differentiated CMs after retinoic acid treatment, increasing doses of BMP4) | proportion of cells with Ca+ sparks among differentiated CMs (differentiated CMs [3]; retinoic acid plus increasing BMP4) | proportion of cells with Ca+ transients among differentiated CMs (differentiated CMs [3]; retinoic acid treatment, with or without BMP4) | MLC-2v protein expression level (MLC-2v)
CC1(C)CCC(C)(C)c2cc([C@@H](O)C(=O)Nc3ccc(C(=O)O)cc3F)ccc21 [RARγ, reference compound] | up to 80% | high expression | high expression | 92% | – | – | – | – | – | – | – | – | – | –
B1 | – | – | – | – | reduced | reduced with additions of increasing concentrations of noggin | effectively reduced | – | – | – | – | – | – | –
B2 | – | – | – | more than 90% | elevated with increasing concentrations of BMP4 | – | – | effectively increased | highest proportion | increased correspondingly | increased significantly | increased with increasing concentrations of BMP4 | decreased with increasing concentrations of BMP4 | increased with increasing concentrations of BMP4

From US11339371B2, “Method for inducing pluripotent stem cells to differentiate into ventricular myocytes in vitro” (Institute of Biophysics, Chinese Academy of Sciences, priority 2012, dated 2022)
